Patent US20130045305A1
Blank lines part the entries; values can stand above or below the molecule they belong to.

Experiments:
[1] = target: Val-Gly
[2] = target: glutathione
[3] = target: γ-Glu-Val
[4] = target: Val-Gly; remark: listed apart in the source
[5] = target: glutathione; remark: listed apart in the source
[6] = target: γ-Glu-nVal-Gly

γ-Glu-Val-Gly (ppm) in the reaction mixture after reaction with glutaminase, 4000 ppm Val-Gly added [1]: 16 ppm | GSH (ppm) in the reaction mixture after reaction with glutaminase, no Val-Gly added [2]: 3.1 ppm
Molecule: Glutaminase Daiwa SD-C100S, Daiwa kasei (enzyme)

γ-EVG, µg 1^-1 OD600^-1, formed in cells cultured with 100 ppm γ-Glu-Val, strain S288C ura3Δ227/YEp24-PTDH3-GSH2 (µg 1^-1 OD600^-1) [3]: 705
Molecule: Gsh2p (glutathione synthetase) of Saccharomyces cerevisiae (enzyme)

γ-Glu-Val-Gly (ppm) in the reaction mixture after reaction with γ-GTP, 4000 ppm Val-Gly added [4]: 340 ppm | GSH (ppm) in the reaction mixture after reaction with γ-GTP, no Val-Gly added [5]: 432 ppm
Molecule: γ-Glutamyltranspeptidase from equine kidney, Sigma, Code G9270-100UN (enzyme)

intracellular content of γ-Glu-nVal-Gly on the dry weight cell, 100 ppm added [6]: 2.84%
B1: Hgt1p of Saccharomyces cerevisiae (protein)
chain: MSTIYRESDSLESEPSPTPTTIPIQINMEEEKKDAFVKNIDEDVNNLTATTDEEDRDPESQKFDRHSIQEEGLVWKGDPTYLPNSPYPEVRSAVSIEDDPTIRLNHWRTWFLTTVFVVVFAGVNQFFSLRYPSLEINFLVAQVVCYPIGRILALLPDWKCSKVPFFDLNPGPFTKKEHAVVTIAVALTSSTAYAMYILNAQGSFYNMKLNVGYQFLLVWTSQMIGYGAAGLTRRWVVNPASSIWPQTLISVSLFDSLHSRKVEKTVANGWTMPRYRFFLIVLIGSFIWYWVPGFLFTGLSYFNVILWGSKTRHNFIANTIFGTQSGLGALPITFDYTQVSQAMSGSVFATPFYVSANTYASVLIFFVIVLPCLYFTNTWYAKYMPVISGSTYDNTQNKYNVTKILNEDYSINLEKYKEYSPVFVPFSYLLSYALNFAAVIAVFVHCILYHGKDIVAKFKDRKNGGTDIHMRIYSKNYKDCPDWWYLLLQIVMIGLGFVAVCCFDTKFPAWAFVIAILISLVNFIPQGILEAMTNQHVGLNIITELICGYMLPLRPMANLLFKLYGFIVMRQGLNLSRDLKLAMYMKVSPRLIFAVQIYATIISGMVNVGVQEWMMHNIDGLCTTDQPNGFTCANGRTVFNASIIWSLPKYLFSSGRIYNPLMWFFLIGLLFPLAVYAVQWKFPKFKFAKHIHTPVFFTGPGNIPPSTPYNYSLFFAMSFCLNLIRKRWRAWFNKYNFVMGAGVEAGVAISVVIIFLCVQYPGGKLSWWGNNVWKRTYDNDYKKFYTLKKGETFGYDKWW
